Reference: patent publication US20180094062A1 (Hoffmann-La Roche, published 2018)

T1: human recombinant HER4 Extracellular Domain (HER4 ECD) (human, UniProt Q15303 26-651)
T1 sequence: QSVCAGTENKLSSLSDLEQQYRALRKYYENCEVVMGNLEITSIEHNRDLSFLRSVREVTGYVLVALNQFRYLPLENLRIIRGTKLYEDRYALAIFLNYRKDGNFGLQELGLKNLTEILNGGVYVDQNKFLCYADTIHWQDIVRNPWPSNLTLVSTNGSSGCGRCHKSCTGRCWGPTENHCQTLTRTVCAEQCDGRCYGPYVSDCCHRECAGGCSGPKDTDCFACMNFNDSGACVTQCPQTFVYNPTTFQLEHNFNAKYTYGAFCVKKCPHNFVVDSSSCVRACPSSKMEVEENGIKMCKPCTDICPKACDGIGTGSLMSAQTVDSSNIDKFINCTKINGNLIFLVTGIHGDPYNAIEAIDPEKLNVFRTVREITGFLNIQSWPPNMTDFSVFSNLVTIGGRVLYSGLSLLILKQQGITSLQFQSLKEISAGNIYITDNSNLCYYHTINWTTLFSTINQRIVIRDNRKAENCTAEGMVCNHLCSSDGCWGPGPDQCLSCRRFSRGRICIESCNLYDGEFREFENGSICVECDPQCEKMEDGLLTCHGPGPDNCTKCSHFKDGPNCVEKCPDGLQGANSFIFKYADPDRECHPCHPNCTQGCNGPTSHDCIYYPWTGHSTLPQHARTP

T2: TtSlyDcas
T2 construct: negative control scaffold without the HER3 β-hairpin
T2 chain: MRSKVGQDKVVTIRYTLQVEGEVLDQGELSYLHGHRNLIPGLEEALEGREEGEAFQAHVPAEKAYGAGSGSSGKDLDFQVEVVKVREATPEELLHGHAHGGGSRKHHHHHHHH

T3: TtSlyDcas-Her3
T3 chain: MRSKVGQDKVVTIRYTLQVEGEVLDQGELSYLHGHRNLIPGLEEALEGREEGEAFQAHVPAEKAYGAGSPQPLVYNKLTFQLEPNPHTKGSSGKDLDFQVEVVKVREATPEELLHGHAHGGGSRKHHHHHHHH

T4: TgSlyDΔIF
T4 construct: negative control scaffold without insert (Thermococcus gammatolerans SlyD); also called TgSlyDAIF
T4 chain: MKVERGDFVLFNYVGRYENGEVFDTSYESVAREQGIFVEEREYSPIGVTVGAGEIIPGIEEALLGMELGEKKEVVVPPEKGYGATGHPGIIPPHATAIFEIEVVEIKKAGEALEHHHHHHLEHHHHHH

T5: TgSlyDser-Her3
T5 chain: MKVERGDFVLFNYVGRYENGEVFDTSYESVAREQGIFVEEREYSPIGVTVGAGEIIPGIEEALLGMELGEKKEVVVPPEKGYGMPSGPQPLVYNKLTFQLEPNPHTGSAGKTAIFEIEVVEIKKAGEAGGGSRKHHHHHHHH

T6: TgSlyDcys-Her3
T6 chain: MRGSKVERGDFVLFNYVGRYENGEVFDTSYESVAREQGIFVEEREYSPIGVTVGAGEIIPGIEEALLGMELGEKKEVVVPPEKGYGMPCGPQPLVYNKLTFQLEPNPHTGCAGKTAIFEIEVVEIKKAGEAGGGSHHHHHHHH


What was measured:
[1] = biological target: T7, human recombinant HER3 Extracellular Domain (HER3 ECD) (human, UniProt P21860 20-643); experiment: ELISA, antigen coated, hybridoma supernatant
T7 construct: 68 kDa; also called human-Her3-ECD
Procedure: (§1) For the ELISA screening an antigen down format was used. […] Hybridoma Supernatant was added to the plates and incubated for 1 h at room temperature. Bound antibody was detected with a HRP-labeled F(ab′)₂ goat anti-mouse Fcγ (Dianova) and ABTS (Roche) was used as a HRP-substrate.
(§2) As negative controls the scaffold proteins TtSlyDcas and TgSlyDΔIF were used.

[2] = biological target: T8, human HER1 Extracellular Domain (HER1 ECD) (human, UniProt P00533 25-645); experiment: ELISA, antigen coated, hybridoma supernatant
T8 construct: also called EGFR ECD
Procedure: as §1, §2

[3] = biological target: human HER2 Extracellular Domain (HER2 ECD) (human, UniProt P04626 23-652); experiment: ELISA, antigen coated, hybridoma supernatant
Procedure: as §1, §2

[4] = biological target: T1, human recombinant HER4 Extracellular …; experiment: ELISA, antigen coated, hybridoma supernatant
Procedure: as §1, §2

TtSlyDcas = biological target: T2, TtSlyDcas; experiment: ELISA, antigen coated, hybridoma supernatant
Procedure: as §1, §2

TtSlyDcas-Her3 = biological target: T3, TtSlyDcas-Her3; experiment: ELISA, antigen coated, hybridoma supernatant
Procedure: as §1, §2

SBP-tagged HER3-ECD = biological target: T9, SBP-tagged HER3-ECD (human, UniProt P21860 20-643); experiment: time-resolved fluorescence, 10 nM Eu-labelled Heregulin-beta on plate-bound SBP-tagged HER3-ECD, antibody titrated
T9 construct: not shown: SBP tag
Procedure: On the next day the wells were washed three times with washing buffer (PBS+0.05% Tween-20) and blocked with PBS containing 1% BSA for one hour. After another three washes with washing buffer, 40 μl antibody solution (in Delfia Binding Buffer) was added to each well as a 2× stock of the desired final concentrations (10⁻³ to 10³ nM, alternatively 10⁻⁴ to 10² nM). Immediately […] of 20 nM Europium-labeled Heregulin-beta (PeproTech, Cat. #100-03) was added to achieve a final concentration of 10 nM. The plates were incubated on a shaker at room temperature for two hours. Following three washes with Delfia Wash Buffer, Delfia Enhancement Solution was added and incubated on a shaker for 15 minutes (light protected). Finally, the plates were measured in a Tecan Infinite F200 reader using a time-resolved fluorescence measurement protocol.

TgSlyDΔIF = biological target: T4, TgSlyDΔIF; experiment: ELISA, antigen coated, hybridoma supernatant
Procedure: as §1, §2

TgSlyDser-Her3 = biological target: T5, TgSlyDser-Her3; experiment: ELISA, antigen coated, hybridoma supernatant
Procedure: as §1, §2

TgSlyDcys-Her3 = biological target: T6, TgSlyDcys-Her3; experiment: ELISA, antigen coated, hybridoma supernatant
Procedure: as §1, §2

| OD 405 nm [1] | OD 405 nm [2] | binding result [2] | OD 405 nm [3] | binding result [3] | OD 405 nm [4] | binding result [4] | OD 405 nm (TtSlyDcas) | OD 405 nm (TtSlyDcas-Her3) | signal of HRG binding to HER3-ECD at the plateau (SBP-tagged HER3-ECD) | OD 405 nm (TgSlyDΔIF) | OD 405 nm (TgSlyDser-Her3) | OD 405 nm (TgSlyDcys-Her3) | Binder |
| --- | --- | --- | --- | --- | --- | --- | --- | --- | --- | --- | --- | --- | --- |
| 1.35 OD | 0.043 OD | no binding | 0.04 OD | no binding | 0.032 OD | no binding | 0.038 OD | 2.56 OD | 330% | – | – | – | anti-HER3 antibody M-46-01 (antibody, V domains shown, mouse hybridoma clone) VH: QIQLQQSGPQLVRPGASVKISCKASGYSFTSYWMHWVKQRPGRGLEWIGMIDPSDGVTRLNQKFKDKATLTVDNSSSTAYMQLSSPTSEDSAVHYCARVDVLYWYFDVWGAGTTVTVSS VL: DIVLTQSPASLAVSLGQRATISCRASKSISISGYSYMHWYQQKAGQPPKLLIYLTSNLESGVPARFSGSGSGTDFTLNIHPVEEEDAATYYCHHSRELPFTFGSGTKLEIK |
| 3.15 OD | 0.06 OD | no binding | 0.025 OD | no binding | 0.024 OD | no binding | 0.038 OD | 3.2 OD | 200% | 0.035 OD | 3.11 OD | 3.26 OD | anti-HER3 antibody M-08-11 (antibody, V domains shown, mouse monoclonal antibody from hybridoma, tested as hybridoma supernatant or as antibody; also called M-011) VH: QAYLQQSGAELMRPGASVRMSCQASGYTFTSYTIHWLKQTPRQGLEWIGAIYPRNGDFSYNQKFKDKASLTVDTSSSTAYMHLSSLTSEDSAVYFCARTINYGDWFAYWGQGTLVTVSA VL: DIQMIQSPASLFVSEGETVIITCRASENIYSNLAWYHQKKGKSPQVLVYAAIKLADGVPLRFSGSGSGTQFSLKINSLQSEDFGSYYCQHFWGPPYTFGSGTNLEIK |
| 2.96 OD | 0.028 OD | no binding | 0.03 OD | no binding | 0.025 OD | no binding | 0.023 OD | 1.53 OD | – | 0.026 OD | 1.57 OD | 1.53 OD | anti-HER3 antibody M-17-02 (antibody, V domains shown, mouse hybridoma clone) VH: EVQLQQSGTVLARPGASVKMSCKASGYSFTSYWIHWVKQRPGQGLEWIGAIYPGNSDTTYNQKFKGKAKLTAVTSASTAYMELSSLTNEDSAVYYCARTGVWTSYYFDYWGQGTTLTVSS VL: DIQMTQSPASLSASVGETVTITCRASENIYSNLAWYQQKQGKSPQLLVYAATNLADGVPSRFSGSGSGTQFSLRINSLQPEDFGSYYCQHFYGTPFTFGTGTKLEIK |
| 1.44 OD | 0.043 OD | no binding | 0.045 OD | no binding | 0.04 OD | no binding | 0.018 OD | 3.27 OD | 200% | 0.038 OD | 3.44 OD | 3.15 OD | anti-HER3 antibody M-43-01 (antibody, V domains shown, mouse hybridoma clone) VH: EVQLQQSGTVLARPGASVKMSCKASDYTFSNYWVHWVKQRPGQGLEWIGAIYPGNGDSTYYQKFKGKATLTAVTSTSTAYMDLSSLTNGDSAVYFCTRSGVGYNYYFDYWGQGTTLTVSS VL: DIQMTQSPASLSASVGETVTITCRASENIYSNLAWYQQKQGKSPQLLVYIATNLADGVPSRFSGSGSGTQFSLKINSLQPEDLGSYYCQHFYGTPFTFGTGTKLEIE |
